# Data from the supplement of paper PMC9170038.
# System: MS2 coat protein
# Experiment: apparent KD of MS2 coat protein; designed switch direction (-1 OFF switch, 1 ON switch): -1; higher = weaker reporter binding
# Method in brief: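 Designed RNA switches with common flanks were transcribed on Illumina chips by stalled E. coli RNA polymerase and titrated with SNAP-549-labelled MS2 coat protein, from 0.7 or 1.5 nM doubling to 3 µM, in Tris-HCl pH 7.5 buffer with KCl, MgCl2, BSA, DTT, tRNA and Tween-20. Steps lasted 0.8–1.5 h (lowest) to 10–20 min (highest). Titrations ran without input, with 200 uM small-molecule ligand, or with an oligonucleotide input. Normalised cluster fluorescence was curve-fitted, and apparent KD is the per-design median over clusters.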
# [1] = Eterna round: R95, input ligand: FMN 200 uM
# [2] = Eterna round: R95, input ligand: microRNA oligo, concentration not stated
# [3] = Eterna round: R95, input ligand: none
# [4] = input ligand: microRNA oligo, concentration not stated
Sequence,apparent KD of MS2 coat protein (input ligand: FMN 200 uM) [µM],apparent KD of MS2 coat protein (input ligand: none) [µM],other results
"GGCAAACAUGAGGAUCACCCAUGUCAGGAUAUUAGGCGAUCGUCGAAAGACGAUAGCCUGAGAAGGGACAUGCC [Eli x1 4.16] (Eterna round: R97, puzzle: Exclusion 1)",0.238,0.103,
"GGCAGACAUGAGGAUCACCCAUGUCAGGAUAUGGUGCGAUCGUCGAUAGACGAUAGCACCAGAAGGGACAUGCC [Mat - Exclusion 1 - Eli Mod - D3] (Eterna round: R97, puzzle: Exclusion 1)",0.0397,0.0214,
"GGCAGUCGAGGAUAUACAAUCGUGCUUCGGCACGUAAGAUCACAUGAGGAUCACCCAUGUAGAAGGCGACUGCC [E2/1-A1] (Eterna round: R97, puzzle: Exclusion 2)",0.749,0.0532,
"GGCAUCGGAGGAUAUACUUAUGGUGAUACCGGAAGCUUUCUACUUGAGGAUCACCCAAGUAGAAGGCCGAUGCC [jl-ex2.4.84 ViennaUCT mod] (Eterna round: R97, puzzle: Exclusion 2)",0.00901,0.0229,
"GGCAUGCAAGGAUAUACUUACAGUGAUGUUCGAAUAAGUCUACUUGAGGAUCACCCAAGUAGAAGGUGCAUGCC [Exclusion 2 (Mod3.1 JL EX2 4.74 Vienna UCT mod of Mamaed)] (Eterna round: R97, puzzle: Exclusion 2)",0.0628,0.016,
"GGCAUGUAAGGAUAUGCCACGGAGGCCUUUGGCCUCCGAAAGCAGAAGGUACAUGAGGAUCACCCAUGUGAUAA [jl-ex4-4.59 ViennaUCT mod] (Eterna round: R97, puzzle: Exclusion 4)",0.467,0.39,
"GGCCCUAAGGUCAGAUUCACAAGCUUUUUGCUCGUUUUAACAUGAGGAUCACCCAUGUCUAGUGGAUUUGAUCCUUA [Sensor v3, turn-off variant 2 (MOD of Indiso v.7)] (puzzle: Sensor v3, turn-off variant 2)",,,apparent KD of MS2 coat protein [1]: 0.0218 µM; apparent KD of MS2 coat protein [2]: 0.02 µM; apparent KD of MS2 coat protein [3]: 0.0189 µM
"GGCCUCGCGGUCAGGAUAUAUUGCUGUAAUCAGUGGUAGAAGGGACAUGAGGAUCACCCAUGUACCUAGGACAU [BmEX4 C.20] (Eterna round: R97, puzzle: Brourd's mod of Exclusion 4)",0.0334,0.0189,
"GGCCUGGAAGGAUAUACAUGAGGAUCACCCAUGUGAAGCCGGUGCAAAUUGACACGAUGUAGAAGGUCCAGCCG [Eternabot (L1) Solution 92] (Eterna round: R97, puzzle: Exclusion 3)",0.467,0.172,
"GGCCUGUAAGGAUAUUAGUAGUAGUCAGAAUAGACUAUUACUGAGAAGGUACAUGAGGAUCACCCAUGUUGGCC [Eli x4 4.06] (Eterna round: R97, puzzle: Exclusion 4)",0.0177,0.014,
"GGCCUUCCGCGAGCUUUUUACAUGAGGAUCACCCAUGUGGUUUUUAGUCUUAUCCCGGGCCCGGUGUCGGGCCCGGG [-32.9, -53.8, A 12%] (Eterna round: R97, puzzle: Sensor, turn-off variant 1)",0.0298,0.0302,
"GGCCUUCCGCGAGCUUUUUACAUGAGGAUCACCCAUGUGGUUUUUAGUCUUAUCCGGCCGGCCGUGUGGCCGGCCGG [-32.9, -53.8, A 12%] (Eterna round: R97, puzzle: Sensor, turn-off variant 1)",0.0261,0.0304,
"GGCGAAGUAGGAUAUACAUGAGGAUCACCCAUGUAACCUGAUGGCGUAGGUCUUCUAUGUAGAAGGACUACGCC [jl-ex3-4.39 ViennaUCT mod] (Eterna round: R97, puzzle: Exclusion 3)",0.0159,0.0181,
"GGCGCACAUGAGGAUCACCCAUGUGAGGAUAUUAGGCGAUCGUCGAAAGACGAUAGCCUGAGAAGGCACAUGCC [Eli x1 4.19] (Eterna round: R97, puzzle: Exclusion 1)",0.154,0.0331,
"GGCGCCUGAGGAUAUCAGUCUGGAUCAGAAAAGAUCCUGACUGAGAAGGCACAUGAGGAUCACCCAUGUUCGCC [Mat - Exclusion 4 - Eli Mod - D51] (Eterna round: R97, puzzle: Exclusion 4)",0.0145,0.0147,
"GGCUAGUCAGGAUAUACGAACAUGUCAAAAGACGUGAAGGGACAUGAGGAUCACCCAUGUAGAAGGGACUAGCA [salish99-ex2-12] (Eterna round: R96, puzzle: Exclusion 2)",0.187,0.028,apparent KD of MS2 coat protein [4]: 0.021 µM

Sequence,apparent KD of MS2 coat protein (input ligand: FMN 200 uM) [µM],apparent KD of MS2 coat protein (input ligand: none) [µM],other results
GGCUAGUCAGGAUAUACGAACAUGUCAAAAGACGUGAAGGGACAUGAGGAUCACCCAUGUAGAAGGGACUAGCA [salish99_ex2_r3_001] (puzzle: Exclusion 2),,,apparent KD of MS2 coat protein [2]: 0.0235 µM
"GGGAAGGGAGGAUAUGAGGAAGAGAACAUGAGGAUCACCCAUGUGAGGCCUCAGGAUCGAUCAGAAGGCCCGAUCC [AK-MS2ROC-r4-exclusion5-15] (Eterna round: R97, puzzle: Exclusion 5)",0.297,0.142,
GGGCAAUUAGGAUAUACAUGAGGAUCACCCAUGUGGAAGCCCGGACAGGUAAUCCACUGUAGAAGGGAUUGCCA [Anareor] (puzzle: Exclusion 3),,,apparent KD of MS2 coat protein [2]: 0.0107 µM
"GGGCCCGGUGUGAGGAUAUGCUCGGGUAAAUCUGGGUAGAAGGCACAUGAGGAUCACCCAUGUAAGCCGGGCCC [-34.4, -32.3 kcal, A 23%, 7bis-0] (Eterna round: R97, puzzle: Brourd's mod of Exclusion 4)",0.0152,0.0193,
"GGGCCCGGUGUGAGGAUAUUUGAAGUGAAAGCUUCGGAGAAGGCACAUGAGGAUCACCCAUGUAAGCCGGGCCC [-35.9, -33.8 kcal, A 26%, 3bis-0] (Eterna round: R97, puzzle: Brourd's mod of Exclusion 4)",0.0161,0.0134,
GGGCGUGAAGGAUAUACAUGAGGAUCACCCAUGUGGGAGGAGAGUGGUGAGGAGGCUGGUAGAAGGUCAGGAGG [JR_Exclusion3_Sub008] (puzzle: Exclusion 3),,,apparent KD of MS2 coat protein [2]: 0.0277 µM
"GGGCUGUCAGGAUAUGGGCCCGGGCCCGAAAGGGCCCGGGCCCAGAAGGGACAUGAGGAUCACCCAUGUGGCCC [-51.3, -50.3 kcal, A 22%] (Eterna round: R97, puzzle: Exclusion 4)",0.043,0.0377,
"GGGCUUCGAGUCAGGAUAUAAGGCCGCUGGCCCAUUUAGAAGGGACUUGAGGAUCACCCAAGUCACCACGGACG [Geceisbi] (Eterna round: R97, puzzle: Brourd's mod of Exclusion 4)",0.0193,0.0168,
"GGGUGACAUGAGGAUCACCCAUGUCAGGAUAUGGGCCCGGGCCCGAAAGGGCCCGGGCCCAGAAGGGACUGCCC [-52, -51 kcal, 22%A] (Eterna round: R97, puzzle: Exclusion 1)",0.151,0.0465,
"GGGUGCAGGCUGAGGUCCUACAUGAGGAUCACCCAUGUGGUCCGGUGACGUGAGUCACCGGACUUAGCUCGUCUUGU [salish99_S_TOV1_R5_009] (Eterna round: R97, puzzle: Sensor, turn-off variant 1)",0.082,0.0978,
GGGUUACAUGAGGAUCACCCAUGUGAGGAUAUGAUACUAUGUACUUCGGUACAUAGUAUCAGAAGGCACAUAAA [Ex1-3: 19] (puzzle: Exclusion 1),,,apparent KD of MS2 coat protein [2]: 0.121 µM
"GGUACUAACACGAAAGUGUUAGUACUAUAGGUUUGUGUUACAUGAGGAUCACCCAUGUCCUCAUAAGCUCGUCUUGU [JL-sv3-2.21 mat747 mod] (puzzle: Sensor v3, turn-off variant 2)",,,apparent KD of MS2 coat protein [1]: 0.455 µM; apparent KD of MS2 coat protein [2]: 0.17 µM; apparent KD of MS2 coat protein [3]: 0.403 µM
"GGUACUAACACGGAAGUGUUAGUACUAUAAGCUUGUGUUACAUGAGGAUCACCCAUGUCCUCAUAAGCUCGUCUUAU [Mat - Sensor v3 - Turn-off var 2 - D75] (puzzle: Sensor v3, turn-off variant 2)",,,apparent KD of MS2 coat protein [1]: 0.0935 µM; apparent KD of MS2 coat protein [2]: 0.0381 µM; apparent KD of MS2 coat protein [3]: 0.0907 µM
"GGUACUCAAAGAGUACCAAUACGAACAUGAGGAUCACCCAUGUAGGAUAUGCUACUCAAAGAGUAGCAGAAGGACAUGUACCUU [Far Half Aptamer v6] (Eterna round: R96, puzzle: Exclusion NG 3)",0.227,0.0295,apparent KD of MS2 coat protein [4]: 0.0197 µM
"GGUACUCAAAGAGUACCAAUACGAACAUGAGGAUCACCCAUGUAGGAUAUGCUACUCAAAGAGUAGCAGAAGGAUAUGAUGGAU [Far Half Aptamer v15] (Eterna round: R96, puzzle: Exclusion NG 3)",0.0602,0.0342,apparent KD of MS2 coat protein [4]: 0.0192 µM
